Experimental data: patent US20120309692A1

Target: recombinant human glandular kallikrein 2 (hK2) (human) (UniProt P20151)
Experiment: cell-based or functional assay

Sequence of SLPI (P03973 26-132 limits assumed): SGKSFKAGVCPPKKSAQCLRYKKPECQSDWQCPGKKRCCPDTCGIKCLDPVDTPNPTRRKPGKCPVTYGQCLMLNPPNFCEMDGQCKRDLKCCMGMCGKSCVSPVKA

Substance: PPACK (peptide)
- hK2 Activity (%) of inhibitor-free control, inhibitor at 5 µM: 0%

Substance: SLPI (from UniProt P03973 26-132)
- hK2 Activity (%) of inhibitor-free control, inhibitor at 0.08 µM: 92%
- hK2 Activity (%) of inhibitor-free control, inhibitor at 4 µM: 35%

Substance: antipain (peptide)
- hK2 Activity (%) of inhibitor-free control, inhibitor at 100 µM: 33%
- hK2 Activity (%) of inhibitor-free control, inhibitor at 500 µM: 10%

Substance: leupeptin (peptide)
- hK2 Activity (%) of inhibitor-free control, inhibitor at 100 µM: 12%
